Earlier results, collected in PMC10092198.
pKd: −log10 of the molar value.

Molecular target: C3b (mC3b) C3b (Mus musculus) (UniProt P01027)
Sequence of UniProt P01027 (P01027 566-669): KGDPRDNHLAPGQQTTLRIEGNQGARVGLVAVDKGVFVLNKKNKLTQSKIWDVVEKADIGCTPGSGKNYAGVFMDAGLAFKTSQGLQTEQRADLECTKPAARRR

Factor H (mFH) (from UniProt P06909)
pKd: 6.00
